For experiment [1], the target named is T1, human CD27 (human, UniProt P26842 21-260).
T1 construct: also called hCD27; HsCD27
The experiment in a line: cell ELISA on human CD27 CHOK1 cells, hIgG1. (ELISA stands for enzyme-linked immunosorbent assay.)
Description: (§1) Purified antibodies were assayed for binding to human CD27 expressing CHOK1 cells using a cell-based ELISA format. Human CD27 expressing CHOK1 cells were plated in 96-well tissue-culture plates in 50 μl of DMEM/F12, 10% BCS (bovine calf serum) (CHO-K1 media). Cells were plated at either 2×10⁴ cells/well two days prior to the assay or 4×10⁴ cells/well one day prior to the assay. Media was removed from the wells prior to the assay followed by incubation of mAb in 100 μL fresh culture medium at a starting concentration of 10 μg/mL and 8 step 1:5 serial dilutions (hIgG4 antibodies) or starting concentration of 50 μg/mL and 8 step 1:5 serial dilutions (hIgG1 antibodies). The antibodies were incubated for 30-60 minutes at room temperature and washed 3 times with PBS/0.05% Tween 20 using a cell ELISA washing protocol on the Biotek EL405x Select CW plate washer.

In experiment [2] the target is T2, His9G-tagged cynomolgus CD27 recombinant protein (cynomolgus, limits assumed).
T2 construct: In-house, transient transfection of HEK293 cells; also called Cyno CD27/His
T2 chain: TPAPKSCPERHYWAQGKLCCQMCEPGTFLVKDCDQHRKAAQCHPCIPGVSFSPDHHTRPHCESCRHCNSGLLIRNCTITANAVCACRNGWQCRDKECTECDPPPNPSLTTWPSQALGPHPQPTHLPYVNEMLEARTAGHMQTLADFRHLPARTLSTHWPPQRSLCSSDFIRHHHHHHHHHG
The experiment in a line: SPR Biacore 4000, antibody captured on anti-human Fc, His9G-tagged CD27 injected, 1:1 fit. (In general: In SPR one partner is held on a chip, and binding of the other changes the refractive index at the surface.)
Excerpt: (§2) Flow cell spots modified with anti-human Fc antibody but lacking CD27 antibodies were used as reference. […] The chip surface was regenerated with a 30 second injection of 3M MgCl₂ after each injection cycle.
(§3) Data were double referenced by subtracting the response from a blank surface and that from a buffer injection and used for analyzing the rate constant of association (kₐ) and dissociation (kd), and the equilibrium dissociation constant KD. The resulting data sets were fitted with a Langmuir 1:1 binding model using the Biacore 4000 BIAevaluation software, version 1.0 (GE/Biacore).

The target in experiment [3] is T3, His9G-tagged human CD27 recombinant protein (human, UniProt P26842 21-191).
T3 construct: In-house, transient transfection of HEK293 cells; also called Human CD27/His
Described as above.
Excerpt: as §2, §3

In experiment [4] the target is T1, human CD27. The experiment in a line: flow cytometry MFI, CD4+ T cells of human PBMC, N=2 donors. Background: A flow cytometer gives signals particle by particle.
For experiment [5], the target named is T1, human CD27. The experiment in a line: cell ELISA on transfected CHO cells.
Description: as §1
The target of experiment [6] is T1, human CD27. The experiment in a line: flow cytometry MFI, CD8+ T cells of human PBMC, N=2 donors.
Description: Labeled cells were washed by re-suspending them in 150 ul of staining buffer (SB) followed by centrifugation at 300 g for 5 minutes. Cells were then resuspended in 100 ul of SB containing primary anti-CD27 antibodies at various concentrations, incubated in the dark at 4° C. for 30 minutes, followed by washing and centrifugation steps as previously described. […] Cells were incubated for 30 minutes at 4° C. in the dark, followed by washing and centrifugation steps. Next, cells were stained with a cocktail of phenotypic antibodies for surface markers (CD3, CD4, CD8, CD11b) and incubated for 30 minutes at 4° C. in the dark, followed by washing and centrifugation steps. […] Samples were acquired in a LSR-Fortessa flow cytometer (BD Biosciences) using the high throughput sampler and data analyzed by FlowJo software (Tree Star Inc).
For experiment [7], the target named is T1, human CD27. The experiment in a line: flow cytometry on primary T cells.
In experiment [8] the target is T1, human CD27. The experiment in a line: cell ELISA on human CD27 CHOK1 cells, hIgG4.
Description: as §1

A word on the EC50: it is the concentration needed to bring the measured effect to its halfway point. Higher therefore signals lower potency in that assay. A word on the Kd: it is the equilibrium constant for the complex coming apart.
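Wherever Kd is given: Double-referenced SPR (blank anti-Fc surface and buffer injection subtracted), KD derived from association and dissociation rate constants, with human and cynomolgus CD27 as analytes.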

B1: hCD27.131A VH9VL9 huIgG1 (antibody, V domains shown)
VH: EIQLVQSGAEVKKPGASVKVSCKASGYTFTNYGMNWVRQAPGQGLKWMGWINTNTGEPTYAEEFKGRFTFTLDTSASTAYMELSSLRSEDTAVYYCAREGDAMDYWGQGTTVTVSS
VL: DIQLTQSPSTLSASVGDRVTITCSASSSVSYMHWYQQKPGKAPKRWIYDTSKLASGVPARFSGSGSGTDYTLTISSLQPEDFATYYCQQWNSYPFTFGQGTKLEIK
On to B1, for which the concentration for a half-maximal effect (EC50) in experiment [1] was 0.111 nM; in experiment [4] it was 0.0774 nM; in experiment [6], 0.0721 nM. In addition, the Kd in experiment [2] came out at 105 nM; in experiment [3], 62.2 nM. In addition, in experiment [5], the “fold EC50 against 131AVH6VL6-hIgG1” value was not above 2 fold. Also, the “EC50 relative to 131AVH6VL6-hIgG1” value in experiment [7] is ≤ 10 % above the EC50 of 131AVH6VL6-hIgG1.

B2: hCD27.131A VH9VL9 huIgG4 (antibody, V domains shown)
VH: EIQLVQSGAEVKKPGASVKVSCKASGYTFTNYGMNWVRQAPGQGLKWMGWINTNTGEPTYAEEFKGRFTFTLDTSASTAYMELSSLRSEDTAVYYCAREGDAMDYWGQGTTVTVSS
VL: DIQLTQSPSTLSASVGDRVTITCSASSSVSYMHWYQQKPGKAPKRWIYDTSKLASGVPARFSGSGSGTDYTLTISSLQPEDFATYYCQQWNSYPFTFGQGTKLEIK
As for B2, the figures for the Kd in experiment [2] and in experiment [3] were 72.9 nM and 104 nM, respectively. In addition, the “fold EC50 against 131AVH6VL6-hIgG1” value in experiment [5] is not above 2 fold. The same molecule returned an EC50 in experiment [8] of 0.13 nM.

B3: hCD27.131A VH6VL6 huIgG4 (antibody, V domains shown)
VH: EIQLVQSGAEVKKPGASVKVSCKASGYTFTNYGMNWVKQAPGQGLKWMGWINTNTGEPTYAEEFKGRFTFTLDTSISTAYMELSSLRSEDTAVYYCAREGDAMDYWGQGTTVTVSS
VL: EIVLTQSPATLSLSPGERATLSCSASSSVSYMHWYQQKPGQAPKRWIYDTSKLASGVPARFSGSGSGTDYSLTISSLEPEDFAVYYCQQWNSYPFTFGQGTKLEIK
Consider B3, for which the Kd in experiment [2] was 73 nM; in experiment [3] it was 168 nM. This molecule returned an EC50 in experiment [8] of 0.101 nM.

B4: hCD27.131A VH8VL7 huIgG4 (antibody, V domains shown)
VH: EIQLVQSGAEVKKPGASVKVSCKASGYTFTNYGMNWVKQAPGQGLKWMGWINTNTGEPTYAEEFKGRFTFTLDTSISTAYMELSSLRNEDTAVYYCAREGDAMDYWGQGTTVTVSS
VL: EIVLTQSPATLSLSPGERATLSCSASSSVSYMHWYQQKPGQAPKRWIYDTSKLASGVPARFSGSGSGTSYSLTISSLEPEDFATYYCQQWNSYPFTFGQGTKLEIK
As for B4, the values for the Kd in experiment [2] and in experiment [3] were 76.8 nM and 89.3 nM, respectively. Moreover, the “fold EC50 against 131AVH6VL6-hIgG1” value in experiment [5] was not above 2 fold. Moreover, in experiment [8], the EC50 was found to be 0.088 nM.

B5: hCD27.131A VH6VL8 huIgG4 (antibody, V domains shown)
VH: EIQLVQSGAEVKKPGASVKVSCKASGYTFTNYGMNWVKQAPGQGLKWMGWINTNTGEPTYAEEFKGRFTFTLDTSISTAYMELSSLRSEDTAVYYCAREGDAMDYWGQGTTVTVSS
VL: EIVLTQSPATLSASPGERVTLSCSASSSVSYMHWYQQKPGQAPKRWIYDTSKLASGVPARFSGSGSGTDYSLTISSMEPEDFAVYYCQQWNSYPFTFGQGTKLEIK
In the case of B5, the figures for the Kd in experiment [2] and in experiment [3] were 55.2 nM and 99.1 nM, respectively. In addition, the “fold EC50 against 131AVH6VL6-hIgG1” value in experiment [5] was not above 2 fold. Besides, a half-maximal effect in experiment [8] (EC50) was put at 0.103 nM.

B6: hCD27.131A VH6VL7 huIgG1 (antibody, V domains shown)
VH: EIQLVQSGAEVKKPGASVKVSCKASGYTFTNYGMNWVKQAPGQGLKWMGWINTNTGEPTYAEEFKGRFTFTLDTSISTAYMELSSLRSEDTAVYYCAREGDAMDYWGQGTTVTVSS
VL: EIVLTQSPATLSLSPGERATLSCSASSSVSYMHWYQQKPGQAPKRWIYDTSKLASGVPARFSGSGSGTSYSLTISSLEPEDFATYYCQQWNSYPFTFGQGTKLEIK
Consider B6, for which the half-maximal effective concentration (EC50) amounted to 0.13 nM in experiment [1], 0.123 nM in experiment [4] and 0.11 nM in experiment [6]. The values for the Kd in experiment [2] and in experiment [3] were 41.9 nM and 71.7 nM, respectively. The “fold EC50 against 131AVH6VL6-hIgG1” value in experiment [5] was not above 2 fold. In addition, the “EC50 relative to 131AVH6VL6-hIgG1” value in experiment [7] is ≤ 10 % above the EC50 of 131AVH6VL6-hIgG1.

B7: hCD27.131A VH7VL8 huIgG4 (antibody, V domains shown)
VH: EIQLVQSGAEVKKPGASVKISCKASGYTFTNYGMNWVKQAPGQGLKWMGWINTNTGEPTYAEEFKGRFTFTLDTSATTAYLEISSLRSEDTAVYYCAREGDAMDYWGQGTTVTVSS
VL: EIVLTQSPATLSASPGERVTLSCSASSSVSYMHWYQQKPGQAPKRWIYDTSKLASGVPARFSGSGSGTDYSLTISSMEPEDFAVYYCQQWNSYPFTFGQGTKLEIK
Regarding B7, the figures for the dissociation constant (Kd) in experiment [2] and in experiment [3] were 40.1 nM and 58.5 nM, respectively. Further, the “fold EC50 against 131AVH6VL6-hIgG1” value in experiment [5] is not above 2 fold. Besides, in experiment [8], a half-maximal response (EC50) required 0.086 nM.

B8: hCD27.131A VH8VL8 huIgG4 (antibody, V domains shown)
VH: EIQLVQSGAEVKKPGASVKVSCKASGYTFTNYGMNWVKQAPGQGLKWMGWINTNTGEPTYAEEFKGRFTFTLDTSISTAYMELSSLRNEDTAVYYCAREGDAMDYWGQGTTVTVSS
VL: EIVLTQSPATLSASPGERVTLSCSASSSVSYMHWYQQKPGQAPKRWIYDTSKLASGVPARFSGSGSGTDYSLTISSMEPEDFAVYYCQQWNSYPFTFGQGTKLEIK
Turning to B8, the Kd in experiment [2] was 96.7 nM; in experiment [3], 110 nM. The “fold EC50 against 131AVH6VL6-hIgG1” value in experiment [5] is not above 2 fold. In experiment [8], this molecule yielded an EC50 of 0.129 nM.

B9: hCD27.131A VH7VL7 huIgG4 (antibody, V domains shown)
VH: EIQLVQSGAEVKKPGASVKISCKASGYTFTNYGMNWVKQAPGQGLKWMGWINTNTGEPTYAEEFKGRFTFTLDTSATTAYLEISSLRSEDTAVYYCAREGDAMDYWGQGTTVTVSS
VL: EIVLTQSPATLSLSPGERATLSCSASSSVSYMHWYQQKPGQAPKRWIYDTSKLASGVPARFSGSGSGTSYSLTISSLEPEDFATYYCQQWNSYPFTFGQGTKLEIK
As for B9, the values for the Kd in experiment [2] and in experiment [3] were 36.7 nM and 82.4 nM, respectively. Moreover, the “fold EC50 against 131AVH6VL6-hIgG1” value in experiment [5] is not above 2 fold. This molecule returned an EC50 in experiment [8] of 0.084 nM.

B10: hCD27.131A VH6VL7 huIgG4 (antibody, V domains shown)
VH: EIQLVQSGAEVKKPGASVKVSCKASGYTFTNYGMNWVKQAPGQGLKWMGWINTNTGEPTYAEEFKGRFTFTLDTSISTAYMELSSLRSEDTAVYYCAREGDAMDYWGQGTTVTVSS
VL: EIVLTQSPATLSLSPGERATLSCSASSSVSYMHWYQQKPGQAPKRWIYDTSKLASGVPARFSGSGSGTSYSLTISSLEPEDFATYYCQQWNSYPFTFGQGTKLEIK
In the case of B10, the Kd in experiment [2] came out at 82 nM; in experiment [3] it was 108 nM. Further, the “fold EC50 against 131AVH6VL6-hIgG1” value in experiment [5] is not above 2 fold. In addition, in experiment [8], the EC50 is 0.132 nM.

B11: hCD27.131A VH8VL6 huIgG4 (antibody, V domains shown)
VH: EIQLVQSGAEVKKPGASVKVSCKASGYTFTNYGMNWVKQAPGQGLKWMGWINTNTGEPTYAEEFKGRFTFTLDTSISTAYMELSSLRNEDTAVYYCAREGDAMDYWGQGTTVTVSS
VL: EIVLTQSPATLSLSPGERATLSCSASSSVSYMHWYQQKPGQAPKRWIYDTSKLASGVPARFSGSGSGTDYSLTISSLEPEDFAVYYCQQWNSYPFTFGQGTKLEIK
Turning to B11, the results for the Kd in experiment [2] and in experiment [3] were 59.7 nM and 132 nM, respectively. In experiment [5], the “fold EC50 against 131AVH6VL6-hIgG1” value was not above 2 fold. The EC50 in experiment [8] amounted to 0.097 nM.

B12: hCD27.131A VH7VL6 huIgG4 (antibody, V domains shown)
VH: EIQLVQSGAEVKKPGASVKISCKASGYTFTNYGMNWVKQAPGQGLKWMGWINTNTGEPTYAEEFKGRFTFTLDTSATTAYLEISSLRSEDTAVYYCAREGDAMDYWGQGTTVTVSS
VL: EIVLTQSPATLSLSPGERATLSCSASSSVSYMHWYQQKPGQAPKRWIYDTSKLASGVPARFSGSGSGTDYSLTISSLEPEDFAVYYCQQWNSYPFTFGQGTKLEIK
For B12, the Kd in experiment [2] was determined as 58.2 nM; in experiment [3], 65.7 nM. Further, in experiment [5], the “fold EC50 against 131AVH6VL6-hIgG1” value is not above 2 fold. This molecule also returned an EC50 in experiment [8] of 0.042 nM.

B13: 131A chimera huIgG4 (antibody, V domains shown)
VH: QIQLVQSGPELKKPGETVKISCKASGYTFTNYGMNWVKQAPGKGLKWMGWINTNTGEPTYAEEFKGRFAFSLETSATTAYLQINNLKNEDTATYFCAREGDAMDYWGQGTSVTVSS
VL: QIVLTQSPAIMSASPGEKVTMTCSASSSVSYMHWYQQKSGTSPKRWIYDTSKLASGVPARFSGSGSGTSYSLTISSMEAEDAATYYCQQWNSYPFTFGSGTKLEIK
notes: also called chimeric mouse-human hCD27.131A huIgG4
As to B13, the Kd in experiment [2] amounted to 31.2 nM; in experiment [3], 43.4 nM.

B14: Mouse Human Chimera CD27 131A-hIgG1 (antibody, V domains shown)
VH: QIQLVQSGPELKKPGETVKISCKASGYTFTNYGMNWVKQAPGKGLKWMGWINTNTGEPTYAEEFKGRFAFSLETSATTAYLQINNLKNEDTATYFCAREGDAMDYWGQGTSVTVSS
VL: QIVLTQSPAIMSASPGEKVTMTCSASSSVSYMHWYQQKSGTSPKRWIYDTSKLASGVPARFSGSGSGTSYSLTISSMEAEDAATYYCQQWNSYPFTFGSGTKLEIK
notes: also called chimeric mouse-human hCD27.131A huIgG1
As for B14, the equilibrium dissociation constant (Kd) in experiment [2] came out at 40.4 nM; in experiment [3], 29.2 nM. For the same molecule, the EC50 in experiment [4] is 0.0664 nM; in experiment [6], 0.0649 nM.

Values taken from patent US20180086841A1 (Merck Sharp & Dohme, published 2018).
